Molecular target: T1, human laminin β1 subunit (human, UniProt P07942 22-1786)
T1 construct: 185 kDa chain from laminin 12 isolated from human placental chorionic villi, reduced and resolved by SDS-PAGE; also called 185 kDa band; 185 kDa chain
Assay: trimer isolated from placenta; non-reducing then reducing SDS-PAGE and peptide sequencing of the chains
From the text: Protein sequencing was done according to Aebersold et al. (1987). The complex laminin 5-laminin 7 was run on a polyacrylamide gel in the presence of 2-mercaptoethanol and blotted onto a nitrocellulose membrane (Biorad). The 190 kDa band of β2 and the 165 kDa α3 band were separately excised and digested by protease trypsin. The digested product was separated by HPLC and one fragment was sequenced on an Applied Biosystems sequenator (Applied Biosystems, Foster City, Calif.). The 205 kDa chain contained a sequence identical to human laminin α2, and was thus identified as human laminin α2 subunit. The 185 kDa produced two peptides identical to human β1, and was thus identified as human laminin β1 subunit. The band at 170 kDa contained three sequences not contained in any known laminin chain. A N-terminal sequence of the 170 kDa chain was also determined. In addition, the N-terminal sequence was not identical to any known laminin sequence.

T1 sequence (P07942 22-1786 Q1022R limits assumed): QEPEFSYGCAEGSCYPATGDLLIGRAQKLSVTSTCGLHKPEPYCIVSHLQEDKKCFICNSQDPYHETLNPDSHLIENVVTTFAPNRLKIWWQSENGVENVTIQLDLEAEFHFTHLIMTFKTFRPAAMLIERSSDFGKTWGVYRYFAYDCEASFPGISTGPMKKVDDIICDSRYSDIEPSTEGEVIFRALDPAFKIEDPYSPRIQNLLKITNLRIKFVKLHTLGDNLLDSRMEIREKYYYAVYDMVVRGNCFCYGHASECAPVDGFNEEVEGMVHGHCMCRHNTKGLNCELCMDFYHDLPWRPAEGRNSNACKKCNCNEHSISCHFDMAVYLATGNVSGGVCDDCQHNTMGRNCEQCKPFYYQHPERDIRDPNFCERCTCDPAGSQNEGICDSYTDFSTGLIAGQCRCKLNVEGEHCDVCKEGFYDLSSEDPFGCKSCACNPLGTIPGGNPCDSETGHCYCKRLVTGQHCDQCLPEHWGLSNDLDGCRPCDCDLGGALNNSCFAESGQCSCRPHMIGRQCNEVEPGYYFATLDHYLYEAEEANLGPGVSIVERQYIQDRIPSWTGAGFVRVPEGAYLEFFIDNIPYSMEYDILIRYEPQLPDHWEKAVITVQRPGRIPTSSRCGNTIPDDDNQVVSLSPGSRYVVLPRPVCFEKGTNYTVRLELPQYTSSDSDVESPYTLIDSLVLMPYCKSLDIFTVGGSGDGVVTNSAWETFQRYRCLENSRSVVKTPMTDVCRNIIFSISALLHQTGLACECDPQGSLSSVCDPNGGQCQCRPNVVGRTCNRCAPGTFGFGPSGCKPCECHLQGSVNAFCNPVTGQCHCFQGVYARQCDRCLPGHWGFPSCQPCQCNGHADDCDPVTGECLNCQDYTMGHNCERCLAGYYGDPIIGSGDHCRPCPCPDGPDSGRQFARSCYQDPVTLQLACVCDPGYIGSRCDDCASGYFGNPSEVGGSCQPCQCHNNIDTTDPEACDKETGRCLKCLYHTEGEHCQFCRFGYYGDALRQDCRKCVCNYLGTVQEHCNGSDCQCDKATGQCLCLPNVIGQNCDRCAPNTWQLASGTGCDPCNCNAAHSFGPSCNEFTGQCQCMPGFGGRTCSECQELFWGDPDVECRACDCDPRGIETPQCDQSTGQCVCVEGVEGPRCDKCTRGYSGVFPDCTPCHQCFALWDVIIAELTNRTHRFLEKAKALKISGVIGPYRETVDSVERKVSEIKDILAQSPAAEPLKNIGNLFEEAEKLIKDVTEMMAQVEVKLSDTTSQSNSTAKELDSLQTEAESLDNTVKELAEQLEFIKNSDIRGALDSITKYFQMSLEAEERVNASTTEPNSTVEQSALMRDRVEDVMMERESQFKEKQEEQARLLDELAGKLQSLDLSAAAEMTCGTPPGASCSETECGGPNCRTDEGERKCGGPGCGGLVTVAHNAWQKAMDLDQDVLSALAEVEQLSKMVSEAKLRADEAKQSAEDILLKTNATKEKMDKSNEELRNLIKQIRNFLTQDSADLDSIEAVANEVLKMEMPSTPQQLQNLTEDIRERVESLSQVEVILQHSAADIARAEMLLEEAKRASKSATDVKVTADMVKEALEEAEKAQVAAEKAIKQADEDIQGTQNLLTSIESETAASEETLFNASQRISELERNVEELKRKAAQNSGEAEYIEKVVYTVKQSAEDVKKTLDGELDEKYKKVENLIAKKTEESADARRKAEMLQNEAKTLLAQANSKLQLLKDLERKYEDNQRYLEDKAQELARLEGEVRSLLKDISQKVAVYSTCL

binding result: binds
B1: human laminin γ3 subunit (other)
chain: AGMGACYDGAGRPQRCLPVFENAAFGRLAQASHTCGSPPEDFCPHVGAAGAGAHCQRCDAADPQRHHNASYLTDFHSQDESTWWQSPSMAFGVQYPTSVNITLRLGKAYEITYVRLKFHTSRPESFAIYKRSRADGPWEPYQFYSASCQKTYGRPEGQYLRPGEDERVAFCTSEFSDISPLSGGNVAFSTLEGRPSAYNFEESPGLQEWVTSTELLISLDRLNTFGDDIFKDPKVLQSYYYAVSDFSVGGRCKCNGHASECGPDVAGQLACRCQHNTTGTDCERCLPFFQDRPWARGTAEAAHECLPCNCSGRSEECTFDRELFRSTGHGGRCHHCRDHTAGPHCERCQENFYHWDPRMPCQPCDCQSAGSLHLQCDDTGTCACKPTVTGWKCDRCLPGFHSLSEGGCRPCTCNPAGSLDTCDPRSGRCPCKENVEGNLCDRCRPGTFNLQPHNPAGCSSCFCYGHSKVCASTAQFQVHHILSDFHQGAEGWWARSVGGSEHSPQWSPNGVLLSPEDEEELTAPGKFLGDQRFSYGQPLILTFRVPPGDSPLPVQLRLEGTGLALSLRHSSLSGPQDARASQGGRAQVPLQETSEDVAPPLPPFHFQRLLANLTSLRLRVSPGPSPAGPVFLTEVRLTSARPGLSPPASWVEICSCPTGYTGQFCESCAPGYKREMPQGGPYASCVPCTCNQHGTCDPNTGICVCSHHTEGPSCERCLPGFYGNPFAGQADDCQPCPCPGQSACTTIPESGEVVCTHCPPGQRGRRCEVCDDGFFGDPLGLFGHPQPCHQCQCSGNVDPNAVGNCDPLSGHCLRCLHNTTGDHCEHCQEGFYGSALAPRPADKCMPCSCHPQGSVSEQMPCDPVTGQCSCLPHVTARDCSRCYPGFFDLQPGRGCRSCKCHPLGSQEDQCHPKTGQCTCRPGVTGQACDRCQLGFFGSSIKGCRACRCSPLGAASAQCHYNGTCVCRPGFEGYKCDRCHYNFFLTADGTHCQQCPSCYALVKEETAKLKARLTLTEGWLQGSDCGSPWGPLDILLGEAPRGDVYQGHHLLPGAREAFLEQMMGLEGAVKAAREQLQRLNKGARCAQAGSQKTCTQLADLEAVLESSEEEILHAAAILASLEIPQEGPSQPTKWSHLAIEARALARSHRDTATKIAATAWRALLASNTSYALLWNLLEGRVALETQRDLEDRYQEVQAAQKALRTAVAEVLPEAESVLATVQQVGADTAPYLALLASPGALPQKSRAEDLGLKAKALEKTVASWQHMATEAARTLQTAAQATLRQTEPLTMARSRLTATFASQLHQGARAALTQASSSVQAATVTVMGARTLLADLEGMKLQFPRPKDQAALQRKADSVSDRLLADTRKKTKQAERMLGNAAPLSSSAKKKGREAEVLAKDSAKLAKALLRERKQAHRRASRLTSQTQATLQQASQQVLASEARRQELEEAERVGAGLSEMEQQIRESRISLEKDIETLSELLARLGSLDTHQAPAQALNETQWALERLRLQLGSPGSLQRKLSLLEQESQQQELQIQGFESDLAEIRADKQNLEAILHSLPENCASWQ
notes: 170 kDa chain from laminin 12 isolated from human placental chorionic villi, reduced and resolved by SDS-PAGE; also called 170 kDa γ3 chain; 170 kDa band
